Our source for the EC50, Aequorin assay (partial agonist), EC50, agonist activity, Aequorin assay and reduction of CCR6-expressing cells by the column (flow cytometry before and after passage) values is patent EP2717941B1.

Where only a bound is given, the exact number is not on record here.

Test in all cases: cell-based or functional assay
For experiment [1], the target named is hCCR2b (human) (UniProt P41597).
Experiment [2] addresses hCXCR4 (human) (UniProt P61073).
Experiment [3] addresses CCR4 (human) (UniProt P51679).
Experiment [4] has as its target CCR6 (human) (UniProt P51684).
The target of experiment [5] is hCCR9 (human) (UniProt P51686).
The target of experiment [6] is chemokine receptor CCR7 (human) (UniProt P32248).
For experiment [7], the target named is hCCR10 (human) (UniProt P46092).
Experiment [8] deals with hCXCR3 (human) (UniProt P49682).
Chain of hCXCR3 (human) (P49682 whole entry): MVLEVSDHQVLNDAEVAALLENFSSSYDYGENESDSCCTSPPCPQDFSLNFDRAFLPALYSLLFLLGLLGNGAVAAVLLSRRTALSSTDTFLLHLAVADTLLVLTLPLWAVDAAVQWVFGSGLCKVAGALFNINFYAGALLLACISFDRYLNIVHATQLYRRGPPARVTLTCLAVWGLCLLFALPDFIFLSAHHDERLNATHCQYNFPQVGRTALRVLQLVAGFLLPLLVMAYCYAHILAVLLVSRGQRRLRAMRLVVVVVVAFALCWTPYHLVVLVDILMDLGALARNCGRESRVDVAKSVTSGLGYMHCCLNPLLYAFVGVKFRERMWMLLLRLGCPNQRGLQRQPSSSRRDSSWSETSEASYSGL

Chain of CCR6 (human) (P51684 whole entry): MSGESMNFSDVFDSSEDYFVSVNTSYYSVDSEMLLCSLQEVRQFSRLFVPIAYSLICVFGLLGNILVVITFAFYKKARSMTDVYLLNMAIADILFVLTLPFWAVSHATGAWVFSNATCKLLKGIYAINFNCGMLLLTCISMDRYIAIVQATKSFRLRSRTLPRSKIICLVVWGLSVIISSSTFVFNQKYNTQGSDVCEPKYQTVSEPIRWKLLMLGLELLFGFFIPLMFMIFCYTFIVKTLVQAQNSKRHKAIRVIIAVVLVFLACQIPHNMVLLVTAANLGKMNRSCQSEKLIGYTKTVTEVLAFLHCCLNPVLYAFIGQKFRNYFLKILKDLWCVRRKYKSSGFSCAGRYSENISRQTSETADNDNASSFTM
Chain of hCCR9 (human) (P51686 whole entry): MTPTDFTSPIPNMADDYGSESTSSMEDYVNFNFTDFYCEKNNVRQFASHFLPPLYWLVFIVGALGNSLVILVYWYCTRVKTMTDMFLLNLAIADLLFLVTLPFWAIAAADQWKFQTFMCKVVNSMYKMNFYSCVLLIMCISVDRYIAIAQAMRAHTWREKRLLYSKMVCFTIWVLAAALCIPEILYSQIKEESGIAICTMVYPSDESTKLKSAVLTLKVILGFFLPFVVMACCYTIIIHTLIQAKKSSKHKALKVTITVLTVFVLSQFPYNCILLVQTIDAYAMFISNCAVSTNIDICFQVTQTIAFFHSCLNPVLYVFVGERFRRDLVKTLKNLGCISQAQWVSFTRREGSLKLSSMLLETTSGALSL
Chain of CCR4 (human) (P51679 whole entry): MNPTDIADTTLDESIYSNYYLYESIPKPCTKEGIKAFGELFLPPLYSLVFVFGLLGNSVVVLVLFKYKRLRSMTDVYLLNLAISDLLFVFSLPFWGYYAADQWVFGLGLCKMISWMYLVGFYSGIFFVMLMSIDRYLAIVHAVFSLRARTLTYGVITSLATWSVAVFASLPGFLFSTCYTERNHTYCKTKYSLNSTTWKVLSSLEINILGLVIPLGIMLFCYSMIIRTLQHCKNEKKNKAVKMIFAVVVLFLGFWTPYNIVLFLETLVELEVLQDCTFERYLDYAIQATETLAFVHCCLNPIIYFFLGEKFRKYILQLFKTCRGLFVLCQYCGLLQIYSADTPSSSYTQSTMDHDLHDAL
Chain of hCCR2b (human) (P41597 other isoform, or with tags, fused parts or gaps limits assumed): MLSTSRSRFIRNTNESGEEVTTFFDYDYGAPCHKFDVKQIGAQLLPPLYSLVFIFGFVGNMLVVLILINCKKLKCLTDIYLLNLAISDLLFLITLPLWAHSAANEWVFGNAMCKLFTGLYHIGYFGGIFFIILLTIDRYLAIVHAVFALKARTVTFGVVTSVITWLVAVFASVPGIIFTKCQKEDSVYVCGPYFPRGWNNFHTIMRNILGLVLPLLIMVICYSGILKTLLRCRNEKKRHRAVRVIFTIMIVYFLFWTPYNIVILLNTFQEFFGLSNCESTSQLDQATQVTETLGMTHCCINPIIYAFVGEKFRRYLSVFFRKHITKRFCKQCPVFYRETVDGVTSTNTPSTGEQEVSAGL
Chain of chemokine receptor CCR7 (human) (P32248 25-378): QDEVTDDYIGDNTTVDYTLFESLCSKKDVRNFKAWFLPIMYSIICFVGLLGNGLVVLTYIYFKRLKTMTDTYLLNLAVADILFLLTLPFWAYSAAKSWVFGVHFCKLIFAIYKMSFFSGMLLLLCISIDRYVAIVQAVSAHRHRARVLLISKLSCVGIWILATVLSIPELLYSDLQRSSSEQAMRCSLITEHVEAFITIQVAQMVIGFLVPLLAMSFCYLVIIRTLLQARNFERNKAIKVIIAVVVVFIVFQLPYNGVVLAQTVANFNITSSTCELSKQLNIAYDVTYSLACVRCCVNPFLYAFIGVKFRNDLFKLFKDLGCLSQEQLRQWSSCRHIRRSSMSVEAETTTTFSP
Chain of hCCR10 (human) (P46092 whole entry): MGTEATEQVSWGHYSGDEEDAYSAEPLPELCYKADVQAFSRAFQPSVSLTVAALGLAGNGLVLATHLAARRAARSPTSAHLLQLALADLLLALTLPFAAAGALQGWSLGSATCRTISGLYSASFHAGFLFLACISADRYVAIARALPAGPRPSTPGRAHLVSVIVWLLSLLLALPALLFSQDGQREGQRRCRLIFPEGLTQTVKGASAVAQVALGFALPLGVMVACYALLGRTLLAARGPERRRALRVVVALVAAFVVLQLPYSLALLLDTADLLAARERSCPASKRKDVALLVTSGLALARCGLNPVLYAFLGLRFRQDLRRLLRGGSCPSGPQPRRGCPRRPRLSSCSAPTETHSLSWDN
Chain of hCXCR4 (human) (P61073 whole entry): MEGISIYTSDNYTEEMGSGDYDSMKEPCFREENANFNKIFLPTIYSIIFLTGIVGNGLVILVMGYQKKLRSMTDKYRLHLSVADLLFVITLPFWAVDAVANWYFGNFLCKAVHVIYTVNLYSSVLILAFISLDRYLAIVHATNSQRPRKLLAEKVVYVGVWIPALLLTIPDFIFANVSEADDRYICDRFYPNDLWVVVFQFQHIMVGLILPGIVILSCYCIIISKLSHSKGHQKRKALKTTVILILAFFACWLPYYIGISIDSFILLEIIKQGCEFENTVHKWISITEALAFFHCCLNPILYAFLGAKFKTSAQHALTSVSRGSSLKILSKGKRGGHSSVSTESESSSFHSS

In experiment [1], “recombinant native MCP-2 (from UniProt P80075 24-99) (ligand)” registered an EC50, Aequorin assay (partial agonist) of 23.5 nM.

Take “biotinSDF-1α (CXCL12), SDF-1α derivatised at the ε-amino side chain functionality of Lys(64) with Biotin (from UniProt P48061 22-67) (ligand)”: the EC50, agonist activity, Aequorin assay in experiment [2] was 17.3 nM.

In turn, “recombinant native TARC (from UniProt Q92583 24-94) (ligand)” registered an EC50, agonist activity, Aequorin assay in experiment [3] of 2.6 nM.

As to “recombinant native MIP-3α (from UniProt P78556 27-96) (ligand)”, in experiment [4], the EC50, agonist activity, Aequorin assay was 1 nM.

Turning to “biotinTECK(Met to Nleu substitution) (CCL25), derivatised at the ε-amino side chain functionality of Lys72 with PEG-Biotin (from UniProt O15444 25-97) (ligand)”, in experiment [5], the EC50, agonist activity, Aequorin assay is 63.6 nM.

In turn, “recombinant native MIP-3β (from UniProt Q99731 22-98) (ligand)” had an EC50, agonist activity, Aequorin assay in experiment [6] of 1.6 nM.

In experiment [7], “recombinant native CTAC (from UniProt Q9Y4X3 25-112) (ligand)” showed an EC50, agonist activity, Aequorin assay of 33.5 nM.

Consider “recombinant native TECK (from UniProt O15444 24-150) (ligand)”, for which the EC50, agonist activity, Aequorin assay in experiment [5] was 67.9 nM.

In experiment [8], “recombinant native ITAC (from UniProt O14625 22-94) (ligand)” gave an EC50, agonist activity, Aequorin assay of 0.7 nM.

As to “recombinant native IP-10 (from UniProt P02778 22-98) (ligand)”, the EC50, agonist activity, Aequorin assay in experiment [8] was determined as 4.4 nM.

Substance “recombinant native MDC (from UniProt O00626 25-93) (ligand)” returned an EC50, agonist activity, Aequorin assay in experiment [3] of 3.6 nM.

As for “biotinylated MIP-3alpha (from UniProt P78556 27-96) (ligand)”, the reduction of CCR6-expressing cells by the column (flow cytometry before and after passage) in experiment [4] was < 15%.
